Experimental data reported in patent publication US20110182903A1, “NOVEL SOLUBLE CD83 POLYPEPTIDES, FORMULATIONS AND METHODS OF USE” (priority 2008, published 2011).
Changes are numbered by the printed parent chain. Numbers in names are those of the source. Read-outs that look alike come from different tables or passages of the source.

Key:
[1] = Storage stability of purified protein, reduced and non-reduced SDS-PAGE; assay type: physicochemical
Method: The purified wild type hCD83ext, when prepared as described in Example 1 and formulated either in the presence or absence of 50% glycerol, degraded when stored at 4° C., perhaps due to an intrinsic instability of this biomolecule. […] Generally, the dimer composition increased monotonically with the sample age, indicating the progressive conversion of monomer to dimer under this storage condition. Note that there were at least two different monomer forms (lane 6, FIG. 6) and three different dimer forms (lanes 3 and 7, FIG. 6) derived from various sample preps.

[2] = system: heterotopic cardiac allograft; test: C57BL/6-to-BALB/c mouse heart transplant model (murine heterotopic cardiac allograft); assay type: in vivo; settings: for extension of allograft survival compared to untreated controls / mean survival time of graft: monotherapy; for mean survival time of graft: 100 ug per mouse per day for 8 days, untreated mean 8 days
Method: Animal model: C57BL/6-to-BALB/c Mouse Heart Transplant Model
Male adult C57BL/6 (H-2b) were used as donors and BALB/c (H-2d) mice were used as recipients (Jackson Laboratories, Bar Harbor, Mass.). Intra-abdominal heterotopic cardiac transplantation was performed as previously described (Corry et al. (1973) Transplantation 16(4):343-350 and Wang et al. (2007) J Immunol 179(7):4451-4463). In this study, transplant surgery involved transfer of fully MHC-mismatched hearts from C57BL/6 donors to BALB/c recipients, such that the autologous heart as well as the allogenic heart was present in the recipient.
Cardiac transplant recipients were treated as follows: Group I (five recipients) received no treatment. Group 2 (3 recipients) received hCD83ext-m3 monotherapy by i.v. at 100 μg/mouse/day, from −1 to +7 POD. […] Cardiac transplant survival was measured in the number of postoperative days (POD) that the allogenic heart continued to beat.
Cardiac transplant recipients were treated as follows: Group 4 (4 recipients) received hCD83ext-wt (SEQ ID NO:5) monotherapy by i.v. at 100 μg/mouse/day, from the day prior to transplantation until graft rejection.

[3] = system: TNFα production by LPS/IFN-γ stimulated human PBMCs; test: Inhibition of TNFα production by LPS/IFN-γ stimulated human PBMCs; assay type: cell-based; settings: FIG. 30; four m3 preparations (pH 4.5, 5.5, 7.6) vs wild type ARG-021 in PBS pH 7.6
Source text: The improved stability/activity of hCD83ext-m3 as compared to hCD83ext wild type was confirmed in a similar assay using human PBMCs.

[4] = system: TNFα production by LPS/IFN-γ stimulated peripheral blood mononuclear cells (PBMCs)
Method: The ability of the wild type and mutant hCD38ext to inhibit TNFα production by LPS/IFN-γ stimulated peripheral blood mononuclear cells (PBMCs) was evaluated in an in vitro assay using PBMCs from cynomologus monkeys. Specifically, cynomologus PBMCs were isolated and pretreated 12 hours with different concentrations (0.5, 5, 25 and 100 μg/ml) of hCD83ext wild type (formulated at pH 4.5 or 5.5), hCD83ext-m3 or hCD83ext-m5 (501-1). hCD83ext-m3 and hCD83ext-m5 were formulated at pH 5.5 or 7.6, respectively. The cells were then activated for 6 hours with LPS (1 μg/ml) plus IFN-γ (100 U/ml) in the presence of Brefeldin A (4 μg/ml) and then intracellularly stained for TNFα using a commercially available Fix/Perm kit. Flow cytometry acquisition and analysis of the amount of TNFα production was evaluated using either myeloid dendritic cells or monocytes. The results are expressed as % of mDC or monocytes producing TNFα and in Mean Fluorescence Units (MFU), which represents the levels of TNFα on a per cell basis.
hCD83ext wild type protein originally formulated at pH 7.6 (data shown FIGS. 26 and 27) was buffer exchanged into a buffer with a pH of 4.5 or 5.5 and re-tested as described above for the ability to inhibit TNFα production by LPS/IFN-γ stimulated cynomologus PBMCs in vitro.

rat renal allografts = test: Rat renal transplant model of chronic rejection (F344 to Lewis); assay type: in vivo; settings: POD 140; with CsA, compared to CsA alone; FIG. 37
Method: F344 rats served as renal donors to Lewis rats. […] Transplant recipients were sacrificed on POD 140 and transplanted kidneys were assessed for indications of chronic rejection by histology and immunohistochemistry. Renal histology was scored by an independent pathologist assessing tubular atrophy, glomerular atrophy, interstitial fibrosis, intimal thickness, cell infiltrates and cortical scarring on a scale of 0-4, wherein 0=normal, 1=minimal change, 2=mild change, 3=moderate change and 4=marked change.

[5] = Dimerization by size-exclusion chromatography and non-reduced SDS-PAGE with NEM pretreatment; assay type: physicochemical; settings: SEC and non-reduced SDS-PAGE with NEM; FIGS. 20, 21
Source text: Using exactly the same fermentation and downstream processing protocols as those for wild-type hCD83ext and CD83m-5, CD83m-3 was produced and purified. […] Purified CD83m-3 was subjected to structural characterization using SDS-PAGE (FIG. 15), CD (FIGS. 16 and 17), and spectrofluometry (FIG. 18) with results similar to wild-type hCD83ext and CD83m-5. Note that a clear and reproducible doublet was observed on non-reduced SDS-PAGE (FIG. 15). Also, note that none of these two bands corresponding to the CD83m-3 doublet appeared to have an identical mobility to the monomer species of CD83m-5, but the upper CD83m-3 band appeared to have an identical mobility to the monomer species of the wild-type hCD83ext (FIG. 19). To avoid potential disulfide bond scrambling during the sample preparation for non-reduced SDS-PAGE, the protocol was modified by pretreatment of the sample with N-Ethylmaleimide (NEM). NEM alkylates free thiol groups on cysteine residues that have not formed disulfide bonds, and thereby prevents subsequent disulfide bonding by that cysteine residue. It appears that the modified protocol using NEM provides a more reliable and consistent method for quantification of CD83 dimers by preventing any potential disulfide bond scrambling and the CD83 monomer is observed as a single band, rather than as a doublet (FIG. 20). […]

[6] = system: kidney allografts from C57BL/6 mouse donors; test: Mouse orthotopic kidney transplant model; assay type: in vivo; settings: monotherapy 100 μg/mouse/day i.v., day -1, day 0 and seven POD; untreated MST 31±4.9 days
Method: The mouse orthotopic kidney transplant model (see Zhang et al. (2005) Microsurgery 16(2):103-109) was used to assess the ability of hCD83ext-m3 to induce allograft tolerance. BALB/c mice received kidney allografts from C57BL/6 mouse donors. Recipient mice were either untreated (two mice) or received hCD83ext-m3 (3 mice; 100 μg/mouse/day, i.v.) one day prior to transplantation (day −1), the day of transplantation (day 0) and for seven days post operative days (POD). The two untreated mice survived for 28 and 35 days, giving a mean survival time (MST) of 31±4.9 days. The three mice treated with hCD83ext-m3 each survived for more than 100 POD. Accordingly, monotherapy with hCD83ext-m3 leads to long-term allograft acceptance in the mouse orthotopic kidney transplant model.

[7] = target: the molecule itself; test: non-reducing SDS-PAGE; self-association through disulfide bonds
[8] = target: the molecule itself; test: size-exclusion chromatography and non-reduced SDS-PAGE with NEM; self-association
[9] = FIG. 26, 0.5, 5, 25 and 100 μg/ml, wild type at pH 4.5 or 5.5, m3 at pH 5.5, m5 at pH 7.6

B1: hCD83ext-wt: recombinant human sCD83 (CD83 extracellular domain) purified from E. coli, wild type form, SEQ ID NO:5 (protein)
chain: GSPGTPEVKVACSEDVDLPCTAPWDPQVPYTVSWVKLLEGGEERMETPQEDHLRGQHYHQKGQNGSFDAPNERPYSLKIRNTTSCNSGTYRCTLQDPDGQRNLSGKVILRVTGCPAQRKEETFKKYRAEI
modifications: Synthetic extracellular domain of human CD83 with the addition of Gly-Ser-Pro-Gly at the N-terminus and Ile at the C-terminus
degradation on storage ([1]; stored at 4° C., with or without 50% glycerol): degraded
degradation on storage ([1]; stored at -20° C.): completely prevented degradation
dimerization on long-term storage ([1]; stored at -20° C., frozen): dimerization could still occur
MST ± SD ([2]; Table 8, hCD83ext-wt 100 μg/mouse/day i.v., CsA 15 mg/kg/day s.c.): 15.8 ± 1.0 days
mean survival ([2]; in combination with cyclosporine, glycerol omitted): approximately 14 days
long-term graft survival ([2]; in combination with cyclosporine, stored in 50% glycerol, final glycerol concentration 8%): > 100 days
extension of allograft survival compared to untreated controls [2]: approximately 2 fold
mean survival time of graft [2]: approximately 14 days

B2: hCD83ext-m3: m3 mutant form of human sCD83; SEQ ID NO:7 with Cys at 12, 20, 92, 114 and Ser at 85 (protein)
chain: B1 chain with C12X, C20X, C85X, C92X, C114X
modifications: Synthetic extracellular domain of human CD83 with the addition of Gly-Ser-Pro-Gly and the N-terminus and Ile at the C-terminus
ability to inhibit TNFα production (relative activity) [3]: outperformed hCD83ext wild type
ability to inhibit TNFα production (relative activity) [4, 9]: more active than the m5 mutant
synergy with CsA and operational tolerance ([2]; 3 doses on days -1 to +1 plus CsA, CsA withdrawn at day 50, data not shown): full synergy with CsA, but incomplete operational tolerance
MST ± SD ([2]; Table 7, hCD83ext-m3 100 μg/mouse/day i.v. -1 to +7 POD, CsA 15 mg/kg/day s.c. daily): 13.7 ± 0.6 days
allograft tolerance after CsA withdrawal ([2]; combination therapy with CsA, CsA withdrawn at day 28, data not shown): does not lead to permanent allograft tolerance
extension of allograft survival compared to untreated controls [2]: approximately 2 fold
mean survival time of graft [2]: approximately 14 days
allograft tolerance after cessation of daily CsA therapy ([2]; plus CsA until POD 50, hCD83ext-m3 100 μg i.v. days -1 to +7, data not shown): complete allograft tolerance
immunohistochemistry grading in renal allografts (IgG, IgM deposits; CD2, CD4, ED-1 infiltration) (rat renal allografts): significantly (p<0.05) improves immunohistochemistry grading
dimerization [5]: absent or minimal
survival of kidney allograft recipients [6]: more than 100 POD

B3: hCD83ext-m5: soluble CD83 mutant, fifth cysteine of SEQ ID NO:5 mutated to serine, SEQ ID NO:6 (WO2004/046182) (protein)
chain: B1 chain with C114S
modifications: Synthetic extracellular domain of human CD83 with the addition of Gly-Ser-Pro-Gly and the N-terminus and Ile at the C-terminus, with Cys to Ser (C2S) mutation at position 114
ability to inhibit TNFα production (relative activity) [4, 9]: more active than the wild type hCD93ext
ability to inhibit TNFα production (relative activity) ([4]; FIG. 27, proteins formulated at pH 7.6): outperformed two preparations of hCD83ext wild type
mean survival time of graft [2]: approximately 14 days
dimerization [5]: significant

B4: wild type hCD83ext (human CD83 extracellular domain with N-terminal Gly-Ser-Pro-Gly and C-terminal Ile, purified from E. coli) (receptor)
chain: GSPGTPEVKVACSEDVDLPCTAPWDPQVPYTVSWVKLLEGGEERMETPQEDHLRGQHYHQKGQNGSFDAPNERPYSLKIRNTTSCNSGTYRCTLQDPDGQRNLSGKVILRVTGCPAQRKEETFKKYRAE
notes: It carries four extra N-terminal residues and the first transmembrane residue (Ile); Not glycosylated (made in E. coli); Preparations hold monomer and disulfide-linked dimers and multimers; also called hCD83ext-wt; hCD83ext wild type
binding result [7]: binds

B5: hCD83ext-m5 (hCD83ext with the fifth cysteine, position 114 of SEQ ID NO:5, mutated to serine) (receptor)
chain: B4 chain with C114S
notes: also called CD83m-5; hCD83m-5
binding result [8]: binds
